Data reported in doi:10.1101/2025.06.12.659315, “Structural Basis for Cas9-Directed Spacer Acquisition in Type II-A CRISPR-Cas Systems” (bioRxiv, 2025).

Experiments:
[1] = target: the molecule itself; experiment: cryo-EM structure; preassembled Cas9/RNA-Csn2-Cas1-Cas2 supercomplex incubated with a 59-bp PAM-containing dsDNA at 4 °C for 30 min; Cas9-containing prespacer catching complex, State I 2.96 Å and State II 3.01 Å
[2] = target: T1, Enterococcus faecalis Cas1-Cas2 integrase complex (Cas1_(4)-Cas2_(2) hexamer) (Enterococcus faecalis, UniProt A0A3N3GDE4 1-288; A0A3N3FLR9 1-109); experiment: SEC; analytical SEC, Superdex 200 Increase 10/300 GL, 20 mM HEPES pH 7.5, 250 mM NaCl; Cas9/RNA, Csn2 and Cas1-Cas2 mixed; fractions analysed by SDS-PAGE (Coomassie); conditions: both partners purified
T1 construct: Cas1 of the Enterococcus faecalis type II-A CRISPR-Cas system, full length; as the chain of m3; Cas2 of the Enterococcus faecalis type II-A CRISPR-Cas system, full length; as the chain of m4; Complex formed beforehand; used as one partner in the gel filtration and DNA cleavage assays; also called Cas1-Cas2 hexamer; Cas1-Cas2 complex; source: E. coli BL21 Star (DE3); tag-cleaved Cas1 and Cas2 …
T1 sequence (looked up) 1: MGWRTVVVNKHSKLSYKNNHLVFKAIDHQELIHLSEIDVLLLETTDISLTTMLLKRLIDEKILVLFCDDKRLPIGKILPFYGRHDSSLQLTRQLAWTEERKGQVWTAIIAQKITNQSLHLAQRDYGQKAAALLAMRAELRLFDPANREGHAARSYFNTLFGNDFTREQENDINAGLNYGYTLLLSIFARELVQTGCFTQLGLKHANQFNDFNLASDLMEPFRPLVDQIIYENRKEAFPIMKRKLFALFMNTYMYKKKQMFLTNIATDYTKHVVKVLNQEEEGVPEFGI
T1 sequence (looked up) 2: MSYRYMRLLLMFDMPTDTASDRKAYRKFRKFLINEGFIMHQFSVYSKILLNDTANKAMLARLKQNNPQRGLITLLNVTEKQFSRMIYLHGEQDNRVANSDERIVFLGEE

[3] = target: the molecule itself; experiment: cryo-EM structure; apo-state Cas9/RNA-Csn2-Cas1-Cas2 supercomplex, assembled from purified proteins and purified by SEC in 20 mM HEPES pH 7.5, 250 mM NaCl; 3.9 Å

B1: Enterococcus faecalis Csn2 (natural protein, UniProt C7UDU4 1-219, looked up)
chain: MRVNFSLLEEPIEIEKATFLTIKDVQSFAHLVKLIYQYDGENELKLFDAQQKGLKPTELFVVTDILGYDVNSAATLKLIYGDLEAQLNDKPEVKSMIEKLTGTISQLIGYELLEHEMDLEEDGIIVQELFKALGIKIETTSDTIFEKVMEITQVHRYLSKKKLLIFINACTYLTEDEVQQVVEYISLNNVDVLFLEQRVVQNRFQYILDENFYLSYEKA
notes: Csn2 of the Enterococcus faecalis type II-A CRISPR-Cas system, full-length gene amplified from E. faecalis genomic DNA; Homotetramer ring with a central channel for dsDNA; also called EfaCsn2; Csn2 tetramer; source: E. coli BL21 Star (DE3), purified (Ni-NTA, TEV cleavage, Superdex 200 SEC); not shown: His6, N-terminal, cleaved; MBP, N-terminal, cleaved
stoichiometry N [1]: 4 | binding result [2]: binds

B2: Enterococcus faecalis Cas2 (natural protein, UniProt A0A3N3FLR9 1-109, looked up)
chain: MSYRYMRLLLMFDMPTDTASDRKAYRKFRKFLINEGFIMHQFSVYSKILLNDTANKAMLARLKQNNPQRGLITLLNVTEKQFSRMIYLHGEQDNRVANSDERIVFLGEE
notes: Cas2 of the Enterococcus faecalis type II-A CRISPR-Cas system, full-length gene amplified from E. faecalis genomic DNA; Cas2 was purified together with Cas1 (Cas1:Cas2 mixed 2:1) before use; also called EfaCas2; Cas2 dimer; source: E. coli BL21 Star (DE3), purified (Ni-NTA, SUMO protease cleavage, Superdex 200 SEC with Cas1)
stoichiometry N [3]: 2

B3: Enterococcus faecalis Cas1 (enzyme, UniProt A0A3N3GDE4 1-288, looked up)
chain: MGWRTVVVNKHSKLSYKNNHLVFKAIDHQELIHLSEIDVLLLETTDISLTTMLLKRLIDEKILVLFCDDKRLPIGKILPFYGRHDSSLQLTRQLAWTEERKGQVWTAIIAQKITNQSLHLAQRDYGQKAAALLAMRAELRLFDPANREGHAARSYFNTLFGNDFTREQENDINAGLNYGYTLLLSIFARELVQTGCFTQLGLKHANQFNDFNLASDLMEPFRPLVDQIIYENRKEAFPIMKRKLFALFMNTYMYKKKQMFLTNIATDYTKHVVKVLNQEEEGVPEFGI
notes: Cas1 of the Enterococcus faecalis type II-A CRISPR-Cas system, full-length gene amplified from E. faecalis genomic DNA; Cas1 was purified together with Cas2 (mixed 2:1) before use; also called EfaCas1; Cas1 dimer; source: E. coli BL21 Star (DE3), purified (Ni-NTA, SUMO protease cleavage, Superdex 200 SEC with Cas2)
stoichiometry N [1]: 2
